From the DeepSol protein solubility set

Experiment: soluble on expression in E. coli; label from the status in PepcDB or PDB records

| Sequence | soluble on expression in E. coli |
| --- | --- |
| ATGGGTAATAATTTAATGCAGACGGACCTTTCCGTCTGGGGTATGTATCARCACGCCGATATTGTCGTTAAGTGCGTGATGATTGGGCTTATTTTGGCCTCCGTAGTCACCTGGGCAATCTTCTTCAGTAAGAGCGTAGAGTTCTTTAATCAGAAGCGTCGCCTTAAGCGCGAGCAGCAACTGCTGGCTGAAGCGCGTTCCTTAAACCAGGCCAACGATATCGCCGCTGATTTTGGTAGCAAAAGCTTAAGCCTGCATTTGCTCAATGAAGCGCAGAATGAGCTGGAACTGTCAGAAGGCAGCGACGATAACGAAGGTATTAAAGAACGTACCAGCTTCCGTCTGGAGCGTCGGGTCGCCGCAGTAGGTCGTCAAATGGGCCGCGGTAACGGCTATCTGGCAACCATCGGCGCGATTTCGCCGTTCGTTGGGCTGTTTGGTACGGTCTGGGGCATCATGAACAGCTTTATTGGTATCGCGCAAACGCAGACCACTAACCTGGCAGTCGTTGCGCCGGGTATCGCAGAAGCTCTGTTAGCAACGGCAATCGGTCTGGTGGCAGCGATTCCGGCGGTCGTTATCTATAACGTATTCGCGCGTCAGATTGGCGGCTTTAAAGCGATGCTGGGTGATGTCGCAGCGCAGGTATTGTTGCTGCAAAGCCGTGACCTGGATCTGGAAGCCAGCGCCGCTGCGCATCCGGTTCGTGTCGCACAAAAATTACGCGCAGGATAA | not soluble |
| NLVNFHRMIKLTTGKEAALSYGFYGCHCGVGGRGSPKDATDRCCVTHDCCYKRLEKRGCGTKFLSYKFSNSGSRITCAKQDSCRSQLCECDKAAATCFARNKTTYNKKYQYYSNKHCRGSTPRC | soluble |
| AHHHHHHGSAVRLKTPLTWEDIRDLEIGDRVLLSGIVYTARDLAHRRFLEEGFPFNPEGAVIYHCGPLIKNGIVVSAGPTTSARMEKYLDFLFNRGVRGVIGKGGMNHEKFKGRAVYFSYPGGAGSLAREFIVKVRDVYWEDLGMTDAVWELEVRDMPLLVSIDSKGRSLYRKN | soluble |
| MEQLRGLYPPLAAYDSGWLDTGDGHRIYWELSGNPNGKPAVFIHGGPGGGISPHHRQLFDPERYKVLLFDQRGCGRSRPHASLDNNTTWHLVADIERLREMAGVEQWLVFGGSWGSTLALAYAQTHPERVSEMVLRGIFTLRKQRLHWYYQDGASRFFPEKWERVLSILSDDERKDVIAAYRQRLTSADPQVQLEAAKLWSVWEGETVTLLPSRESASFGEDDFALAFARIENHYFTHLGFLESDDQLLRNVPLIRHIPAVIVHGRYDMACQVQNAWDLAKAWPEAELHIVEGAGHSYDEPGILHQLMIATDRFAGK | soluble |
| SLNQDEKRTFRLEKEQELRFEVSNENKVYLTLQSGTAEVFGIELPKKKPVELCDTKLAVFTWQGCELQLQGITDLEYVANETPMHLYLKAHYLLDSMRRKARQQGTKGPKVVIVGPQDSGKSSLCQILSCYAMKGGKKILYASIDFQQGSFSIPGAIGASSVEHVTIEDGMIFENNLVYFYGHTVASENPRLLEKLVSNLSNLLDAKLEDSEMDLGHMGFIADSFGSLDGSNYDVLKQVLKEIKANVIIVLGSERLYADIQRDLCSEQRQIIQLPKSGGVVGRDQYLRRRLQEMQLRCYFYGSDGNLNPFTTVVTFDQVHIVRVGIGLHVPATALPLGAQSTLDPLQISQVTPSTELLHCMLGVSQAEEEEQIVDSPVYGFVHVAKVDISKRTISLLAPSPGKLPGSFLVMGSIRWLE | soluble |
| KTNTEQFCSDCHMNDVVPEYRASAHYSNRSGVKAVCADCHVPHEFAPKMLRKLQASTEVYAHLTGKVDNKEKFEAHRLAMAEREWARMKANNSQECRNCHNFEDMDFTQQKTVAQQMHSRAETENKTCIDCHKGIAHNLPHMEKVQKSFIPDDMIKKTEKATEIK | not soluble |
| MSLSSPNILLTRIDNRLVHGQVGVTWTSTIGANLLVVVDDVVANDDIQQKLMGITAETYGFGIRFFTIEKTINVIGKAAPHQKIFLICRTPQTVRKLVEGGIDLKDVNVGNMHFSEGKKQISSKVYVDDQDLTDLRFIKQRGVNVFIQDVPGDQKEQIPDEGHHHHHH | soluble |
| MAQQLLMPKATAVWLVDNTALSFDQIAQFCKLHPLEVKAIADGESAQGIKGLDPIATGQLSRDEIARAEGNPNHKLKLSEPKVRVPDSKRKGPRYTPVSKRQDRPNAILWLVRNHPELKDAQISRLVGTTKATIEQIRERTHWNSANLTPMDPVTLGLCSQIDLDLEVERASKGRPLPSAAETGATLESAQETEKLDYGQDREEEKEIDADAVFAKLKSLKSDRKDDEEDDY | not soluble |
| MARTIPVLEIFGPTIQGEGMVIGQKTMFVRTAGCDYRCRWCDSAFTWDGSAKDEIEQLTADEIWRRLEAIGGRRFRHVTISGGNPLLIAALGELIALLHEKGMRVAVETQGSRWQDWLLDIDDVTLSPKPPSSGMDTDWSALDQIIERLQADQSRVRRISLKVVVFDDADLAYAKEVHCRYPGVPFYLQTGNADVADSDVDALRAKLLSRLEWLVEQAADSEELADVHILPQLHTLLWGNKRGV | not soluble |
| GPGSMSEEHANDSTLRVKVATINDKGEEVYASSLSHDGTYLAAVFGDGALVIFNPSTFSALDSSAAGKGYDNVPCTAVQWLESSEGGLYRLVSVSSAGGVFIWQWDGAALHRTNRVPEKGNEITCLAVSPECDMFITAGSDRTVRLYDADGTLKANLQMAHDESGVSRLAHTSRIFSVRFVSQGVAVSGGWGGPLQVWDLKANEARVEIRGAQVSSDGIELITGTNCVLVASRRQKEQLQVFDCVSGQELADDSARLSMALGELIPLSSRLCKTSGLVWTITSSPSKVLVTSYSTGQLIASYDSAYDLMNISIFEGLPNNAYISCAEGKLLFATVKQ | not soluble |
| TRMAPVIMVPGSSASQNRFDSLITELGKETPKKHSVLKLTVQTDGTIKYSGSIAANDNEPFIVIGFANNRDGKANIDKQAVWLNTAFKALVKTYHFNHFYALGHSNGGLIWTLFLERYLKESPKVHIDRLMTIASPYNMESTSTTAKTSMFKELYRYRTGLPESLTVYSIAGTENYTSDGTVPYNSVNYGKYIFQDQVKHFTEITVTGANTAHSDLPQNKQIVSLIRQYLLAETMPDK | not soluble |
| MSLVLKCSLCINDERITKILTVNGRPICKECKAFLEHPPDKIKIRKELEELLSQVDKAIVAYSGGKDSTVALYLAKEEYDIDVEAVMVDHGFMAPQAIENAKKVSEYLNVPLTIIREDYSEIFKDALLKAKSPCRKCSRRTMEALRKYALEKGYKYIISGHELPFGHHPYRLMSGGIIQIRLLSLMSEKERMEILKKLPFKLPELPGYTSNCLILGPALERYWEKHGYSFEHRRIAALVRYGLLDREKALKKVEKPKVPEWQWELVEKKLNLIVRSLEGHHHHHH | soluble |
| MGSDKIHHHHHHMKKIAIFCHNFFSNGTVKIALSQAEVLQEAGQDVHLFVFHKEGDFMPPENVTIHYLYDAGQKPSLQEQRQHLKAKVAEAEQSGKFSLFLSNSTDCDVVVSGCDFEPCYYFCHCALKQELLMELKRGPVHFWRRWKKAKALIGKKIITVSNGIADELRATSWLKPQSVQTIYNPFRLEEIRKKTQEVIAEIPNVPYMIHVGRVTRQKRHDILFKALRDMPTAPKLVLLCNRPKKARKLAKKYGVEHRIITPGFQHNPYAWIAKAELMLLSSDFEGLPTVVIESLACGTPVVSTDCPHGPNEILTGHLAQYLVPVRQPALLAQKALECLASPPALDNLEILKAVDSQYIAAQYINLAQ | not soluble |
| MGSDKIHHHHHHMNIDAHNLNDLMYFSQVVEHGGFSAAERVLGISKSRLSRRLTELEAALGVRLLQRSTRKLALTEAGELFYQHCQAMLAEAQAAMNAVQQLRSSPRGSVRVSVPVTLSQTMLSRILPEFLHRYPEVKVHIRVTNRVIDLFEDSVDVALRVRSEPPQNANIVVRPLWRTEQMLVGAPSLLSQNAPPLVPDDLARFETLDTPSVDGRHVFNLIAPDGTRHLHEHDPRLVTADLMTIREAVLDGLGIAALPEMMYGNALRAGQLSPVMPGWTLPVPQLYAAFVSRQGMPPAVRAFVDYLVEKLDHGDYKQPSCPERDKKEAAAADVSST | not soluble |
| MTVPSIVLNDGNSIPQLGYGVYKVPPADTQRAVEEALEVGYRHIDTAAIYGNEEGVGAAIAASGIARDDLFITTKLWNDRHDGDEPAAAIAESLAKLALDQVDLYLVHWPTPAADNYVHAWEKMIELRAAGLTRSIGVSNHLVPHLERIVAATGVVPAVNQIELHPAYQQREITDWAAAHDVKIESWGPLGQGKYDLFGAEPVTAAAAAHGKTPAQAVLRWHLQKGFVVFPGSVRREHLEENLDVFDFDLTDTEIAAIDAMDPGDGSGRVSGHPDEVD | soluble |
| MSLSFASSACFNEAGTMFRIEPNLIKAIALVESNLKKDSIGKNRDKKNNIKSFDYGLMQINQMHIPMLKKRGIIKDERDLLDNPCLNIKIGTEILYKHFSRCGMTWQCLGTYNAGFAMDNQKKRLQYAKKIYIVYTRLNELDNRKALAEGHHHHHH | soluble |
| FEELAKQIKLAKTPRLLISLKAEVPMAIGWLKPVVLLPASMVTGLNAAQLEMLILHELAHIRRHDYLVNFLQTLIELLFFFHPSVHWIGKQMRNEREYCSDDIAVQHCGDAIAYAHTLTDTASLCAKNHFHTIPTMAMAASGGDL | not soluble |
| MGSDKIHHHHHHMLIHICCSVDNLYFLKKAKEAFAGEKIVGFFYNPNIHPYSEYLLRLEDVKRTCEMLGIELLEGDYELEKFLDKAKGKELLGEKSERCFECFDLRLEASALKAFELGEEKFTTTLLTSPKKDPNQLIAKGQHIAQRHNLEFVVFRNDNFEHFKSELDLNLQALARENELYRQNYCGCQFALKIQKESQNRSPFELYSPLKRQILPASIEERTQVFRELDAAKKDANKPFLAQKTIATYRLLNGGVWLSKNSNPLDCCILARSKSKAKVRINDLRWVFSQRLSALVGYSQRDETLFLTLEGLNTLMAKNYDNLKELNLNPLSYEEELSLRALVSGSESINPIIVLEERTEKTLFVEIKSIFQEEKVFYLL | not soluble |
| QKKVNVTGAVGMVSAEALEARPVANASQALQGVVPGLNLTVGNNGGALDGTLNMNIRGAGTIGDGSGSSPLVLIDGIEGDLNTVNPNDIESVSVLKDAASASIYGARASFGVILVTTKSGKSG | not soluble |
| MSLSIWGLVNEEDAEIDEDDLSKQEDGGEQPLRKVRTLAQSKPSDKEVILKTDGTFGTLSGKDDSIVEEKAYEPDLSDADFEGIEASPKLDVSKDWVEQLILAGSSLRSVFATSKEFDGPCQNEIDLLFSECNDEIDNAKLIMKERRFTASYTFAKFSTGSMLLTKDIVGKSGVSIKRLPTELQRKFLFDDVYLDKEIEKVTIEARKSNPYPQISESSLLFKDALDYMEKTSSDYNLWKLSSILFDPVSYPYKTDNDQVKMALLKKERHCRLTSWIVSQIGPEIEEKIRNSSNEIEQIFLYLLLNDVVRASKLAIESKNGHLSVLISYLGSNDPRIRDLAELQLQKWSTGGCSIDKNISKIYKLLSGSPFEGLFSLKELESEFSWLCLLNLTLCYGQIDEYSLESLVQSHLDKFSLPYDDPIGVIFQLYAANENTEKLYKEVRQRTNALDVQFCWYLIQTLRFNGTRVFSKETSDEATFAFAAQLEFAQLHGHSLFVSCFLNDDKAAEDTIKRLVMREITLLRASTNDHILNRLKIPSQLIFNAQALKDRYEGNYLEGHHHHHH | not soluble |
| MSLARVELHVHLDGAVGVEELYNISVKRRLQLPGGVKSAAELQAYIIRISPAWHRFDVVNDIIGGDEAVIRDVAEGFVGRQARAGIVYTEVRYDPERLSRSGLANVSISRQAAVRAVRDGLRVGAEKHGVVAYQILCAMRGKSAEQCMATATLAAQMRSTSMGGVVGLDLAGDEVTYRNAPYVGCLRYAKRDLRLNITVHSGEFTETPADEVRSAVVDMGADRVGHGYAAVRNAATLSLVKERLIHVEACPRSAQLHGDLDALDEYRRAQLNFGLNTDDPSVFFGNGTIALDEAIVQDVLHYSVDEVRNAYANALSAAFGPTSAIPGLLRGSAPIVVEGHHHHHH | soluble |
